84 variants from the RNAGym collection of RNA variant scans (doi:10.1073/pnas.2313332121) can be followed below.

Sequences and labels used below:
B1: TPR t1 (parent)
chain: GACCAAUCUGCCCUCAGAGCUCGAGAACAUCUUCGGAUGCAGAGGAGGCAGGCUUCGGUGGCGCGAUAGCGCCAACGUCCUCAACCUCCAAUGCAUCCCACCACAUGAUGAUGCCUGAAGAGCCUUGGUUUUUUG

In this series the parent is B1. Nature of the series: polymerase ribozyme fitness, log enrichment relative to wild type (log ratio); higher = more active; in vitro selection for triplet polymerase activity. An outline of the steps: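 PCR was used to build mutant libraries for each subunit of a heterodimeric triplet polymerase ribozyme, which were then transcribed. A single in vitro selection round, in triplicate, used a frozen incubation at −7 °C and recovered extended constructs by gel excision, streptavidin beads and RT-PCR. Fitness is the logarithm of genotype enrichment relative to wild-type enrichment, averaged over replicates with inverse-variance weights. The logarithm is base 2, and after Illumina sequencing only genotypes with ≥10 input reads and ≥1 read per output were kept.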
In the case of U30C U78A U96A, the “polymerase ribozyme fitness (log ratio)” value was -5.15.

Take U9G A27G A37U: the “polymerase ribozyme fitness (log ratio)” value is -0.779.

For A27U G63U U96G G127C, the “polymerase ribozyme fitness (log ratio)” value is -6.08.

On to C72A G135U, for which the “polymerase ribozyme fitness (log ratio)” value is -0.828.

With A41C G93A U112A, the “polymerase ribozyme fitness (log ratio)” value is -1.27.

Regarding C73G C94G, the “polymerase ribozyme fitness (log ratio)” value was -1.94.

For the variant C40G G69C, the “polymerase ribozyme fitness (log ratio)” value is -2.54.

Take A2C G61A: the “polymerase ribozyme fitness (log ratio)” value is -1.72.

For C13U C72U U129G, the “polymerase ribozyme fitness (log ratio)” value was -0.856.

As to C13G C56U, the “polymerase ribozyme fitness (log ratio)” value was -1.58.

Consider C15A C53A C72G A103C G113A G117A, for which the “polymerase ribozyme fitness (log ratio)” value was -6.79.

Turning to A26G A27U A74G C115U C124U, the “polymerase ribozyme fitness (log ratio)” value was -5.7.

U7C C31U: the “polymerase ribozyme fitness (log ratio)” value was -4.85.

Consider C53G G117C, for which the “polymerase ribozyme fitness (log ratio)” value was -3.47.

Take A6C A26U C62U: the “polymerase ribozyme fitness (log ratio)” value is -2.91.

C12U G42U C73A U112A G135C: the “polymerase ribozyme fitness (log ratio)” value was -0.178.

For the variant G10U C13A A16U G110C U125A, the “polymerase ribozyme fitness (log ratio)” value was -6.47.

As for U14A G71C, the “polymerase ribozyme fitness (log ratio)” value was -3.09.

C49G U55C C98U: the “polymerase ribozyme fitness (log ratio)” value is -2.01.

Consider C73A U81G C88A U112G C115A U125A, for which the “polymerase ribozyme fitness (log ratio)” value was -5.14.

For the variant G60A G69U C72U C86G A118U U129A, the “polymerase ribozyme fitness (log ratio)” value was -5.04.

Turning to C12U A27G G69A C88A U125G, the “polymerase ribozyme fitness (log ratio)” value was -3.8.

Consider G48C C101U U112C, for which the “polymerase ribozyme fitness (log ratio)” value was found to be 0.0907.

Turning to G71U A90U, the “polymerase ribozyme fitness (log ratio)” value was -1.78.

For the variant U55G C73U G110A, the “polymerase ribozyme fitness (log ratio)” value is -0.834.

For the variant C89U G113U, the “polymerase ribozyme fitness (log ratio)” value is -3.66.

In the case of C40A U92G C123G, the “polymerase ribozyme fitness (log ratio)” value is -1.39.

Consider U7C A16G A29U G63U C97U U109A, for which the “polymerase ribozyme fitness (log ratio)” value was -1.24.

As for C15A C72G, the “polymerase ribozyme fitness (log ratio)” value is -2.3.

Consider U7A G47C C62U, for which the “polymerase ribozyme fitness (log ratio)” value is -1.37.

As to C15U G17C C72A A121C, the “polymerase ribozyme fitness (log ratio)” value was -1.65.

In the case of A46G G110U U116A, the “polymerase ribozyme fitness (log ratio)” value is -4.29.

In the case of A5C C89U, the “polymerase ribozyme fitness (log ratio)” value was -0.689.

For C8A C53U U55A G77A C89A U129C, the “polymerase ribozyme fitness (log ratio)” value was -3.11.

As for C8G G23U A24U A41C G60U C86G C101A G120A, the “polymerase ribozyme fitness (log ratio)” value is -7.63.

Regarding A111U U112G G122A, the “polymerase ribozyme fitness (log ratio)” value was -2.25.

As for C62G U87A, the “polymerase ribozyme fitness (log ratio)” value was -2.48.

A6U C124U: the “polymerase ribozyme fitness (log ratio)” value came to 1.56.

Regarding G44U G69C, the “polymerase ribozyme fitness (log ratio)” value was -0.825.

For C34U U78C, the “polymerase ribozyme fitness (log ratio)” value was -4.25.

Consider C76U C123A, for which the “polymerase ribozyme fitness (log ratio)” value came out at 0.138.

Regarding C11A G47C, the “polymerase ribozyme fitness (log ratio)” value is -2.77.

On to U9G G35U C40A G93C C114U, for which the “polymerase ribozyme fitness (log ratio)” value was -5.91.

For C4U C8A C12U C79G, the “polymerase ribozyme fitness (log ratio)” value is -1.25.

Consider C49G C115U, for which the “polymerase ribozyme fitness (log ratio)” value was -1.48.

Consider U7A U21C G71U A90G, for which the “polymerase ribozyme fitness (log ratio)” value is -0.779.

Take C20U G58A C73A G93C G117U: the “polymerase ribozyme fitness (log ratio)” value was -5.31.

For the variant A2G A5G C20A A46C U112G G122U U129C, the “polymerase ribozyme fitness (log ratio)” value was -5.3.

As for U32C G63C, the “polymerase ribozyme fitness (log ratio)” value is -0.346.

Consider C8A C79G, for which the “polymerase ribozyme fitness (log ratio)” value was -1.65.

For the variant C114G G128U U129A, the “polymerase ribozyme fitness (log ratio)” value is -5.24.

On to C11G G44A A121U, for which the “polymerase ribozyme fitness (log ratio)” value came to 1.52.

On to C4G G39U, for which the “polymerase ribozyme fitness (log ratio)” value is -3.24.

Consider A66U C89U, for which the “polymerase ribozyme fitness (log ratio)” value is -1.51.

Take C8G G48U G58C G60U U125G: the “polymerase ribozyme fitness (log ratio)” value was -0.353.

Turning to C3U C11A C13G A74G, the “polymerase ribozyme fitness (log ratio)” value was -2.98.

Consider G17U C70U, for which the “polymerase ribozyme fitness (log ratio)” value is -3.3.

With C70U C98U U129G, the “polymerase ribozyme fitness (log ratio)” value was -2.67.

Turning to C40G C53A C70U C115G U125A, the “polymerase ribozyme fitness (log ratio)” value is -3.58.

For C12A G52A C73U A91G, the “polymerase ribozyme fitness (log ratio)” value is -2.04.

Regarding C20U G63U, the “polymerase ribozyme fitness (log ratio)” value was -2.43.

Take A95C G110A: the “polymerase ribozyme fitness (log ratio)” value is -2.49.

Turning to G23U C72G, the “polymerase ribozyme fitness (log ratio)” value was -6.36.

Turning to C94G C114U G128C, the “polymerase ribozyme fitness (log ratio)” value is -3.47.

G19U U21A C79G C114A: the “polymerase ribozyme fitness (log ratio)” value was -0.277.

Turning to G47A C79U A100U A111U G120A U125G U131A U132C, the “polymerase ribozyme fitness (log ratio)” value was -6.42.

With U7G U33G, the “polymerase ribozyme fitness (log ratio)” value is -5.33.

Consider A26U U54G U78C C89U, for which the “polymerase ribozyme fitness (log ratio)” value is -5.2.

As to U9C G47C U132C, the “polymerase ribozyme fitness (log ratio)” value is -1.22.

As to A50U G60U G117U, the “polymerase ribozyme fitness (log ratio)” value was -4.36.

As to C4U G120C, the “polymerase ribozyme fitness (log ratio)” value is -0.0314.

Consider G42A U87C C89G A90G C115U, for which the “polymerase ribozyme fitness (log ratio)” value was -5.47.

Turning to C12A G36U, the “polymerase ribozyme fitness (log ratio)” value was -1.6.

Regarding A41U C76A, the “polymerase ribozyme fitness (log ratio)” value is -1.89.

Turning to C15A A84G C94U, the “polymerase ribozyme fitness (log ratio)” value is -2.76.

As to C34A G113C, the “polymerase ribozyme fitness (log ratio)” value was -5.75.

G45C U55C A75U A95G U126A U129A: the “polymerase ribozyme fitness (log ratio)” value is -4.26.

On to C15U G69A G113C, for which the “polymerase ribozyme fitness (log ratio)” value is -5.7.

C34A C49G C76G U96A C124U U131G U134C: the “polymerase ribozyme fitness (log ratio)” value was -2.1.

For A6U C15U C31G G51A U54A C73U C115U, the “polymerase ribozyme fitness (log ratio)” value was -5.8.

Turning to A43C G48U C62A A66U C123A, the “polymerase ribozyme fitness (log ratio)” value is -6.8.

As for G71U C79U, the “polymerase ribozyme fitness (log ratio)” value is -0.201.

C13G C53G C72U: the “polymerase ribozyme fitness (log ratio)” value is -1.34.

For A6C G48A C82A, the “polymerase ribozyme fitness (log ratio)” value is -1.56.
